{
  "source": "patent US9234036B2",
  "about": "“Modulation of activity of proneurotrophins” (H. Lundbeck A/S, priority 2006, dated 2016)",
  "molecules": {"B1": {"name": "RAP: receptor-associated protein, SEQ ID NO 12 (protein, listed as Homo Sapiens)", "chain": "MAPRRVRSFLRGLPALLLLLLFLGPWPAASHGGKYSREKNQPKPSPKRESGEEFRMEKLNQLWEKAQRLHLPPVRLAELHADLKIQERDELAWKKLKLDGLDEDGEKEARLIRNLNVILAKYGLDGKKDARQVTSNSLSGTQEDGLDDPRLEKLWHKAKTSGKFSGEELDKLWREFLHHKEKVHEYNVLLETLSRTEEIHENVISPSDLSDIKGSVLHSRHTELKEKLRSINQGLDRLRRVSHQGYSTEAEFEEPRVIDLWDLAQSANLTDKELEAFREELKHFEAKIEKHNHYQKQLEIAHEKLRHAESVGDGERVSRSREKHALLEGRTKELGYTVKKHLQDLSGRISRARHNEL"}},
  "key": {"GST-pro-dom-NGF": {"molecular_target": "T1, GST-pro-dom-NGF (Homo sapiens, UniProt P01138, A35V)", "T1 construct": "previously described GST-NGF-pro-domain fusion protein (Nykjaer et al., Nature 2004)", "T1 sequence (P01138 19-121 A35V)": "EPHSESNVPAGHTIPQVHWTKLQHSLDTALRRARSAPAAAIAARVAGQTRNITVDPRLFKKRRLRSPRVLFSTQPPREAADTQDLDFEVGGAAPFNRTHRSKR", "test": "SPR binding of GST-pro-dom-NGF to immobilized sortilin site-directed mutants", "procedure": "Site-directed mutagenesis was performed for all important residues within the peptide sequence as identified by the substitution analysis in the SPOT method, using the pCepPU expression vector for sortilin as template. The thereby generated mutant constructs were used together with HEK293 cells to produce single residue mutants of the his-tagged sortilin luminal domain, to obtain the proteins R163A, F165A, R166A, F170A, K172A, and F174A numbered according to pro-Sortilin as specified in the sequence overview. As a control protein, the mutant R160A located N-terminally to the recognition sequence, was produced in order to have a protein with unaltered affinity for the NGF-prodomain.\nAfter purification by standard Ni^2+-NTA chromatography, each sortilin mutant was immobilized to a similar surface density on Biacore CM5 chips. Binding was tested using concentration series of the previously described GST-NGF-pro-domain fusion protein (Nykjaer et al., Nature 2004), which is able to render a higher response using the SPR system at low concentration. Thus concentration series of 10, 20, 30, 40, and 50 nM GST-prodomain of NGF was applied to each chip surface, and data was fitted to a 1:1 binding model using the standard BIAevaluation software.\nThis model is further supported by the previous data in the substitution analysis, where a stronger effect upon mutation was observed when using peptides containing only one of the binding motives, as compared to mutants spanning both motives. Accordingly, it was decided to “remove” an entire motif before substitution within the second motif and to be able to observe how that would influence binding of the ligand. A sortilin variant was produced containing quadruple substitutions (R163A, F165A, R166A, and […] F170A) in a similar procedure using HEK293 cells as applied for single residue mutants.\nTo determine ligand binding capacity, quatro protein was coupled in parallel to the wild-type sortilin on a new Biacore chip, and binding of GST-pro-NGF was measured in a manner similar to the analysis of single residue mutants (FIG. 21)."}, "pro-dom-BDNF": {"molecular_target": "T2, pro-dom-BDNF (Homo sapiens, UniProt P23560)", "T2 construct": "pro-dom-BDNF (residues Ala^1-Arg^110); made in house; host or cells: E. coli BL21/DE3", "T2 sequence (P23560 19-128 limits assumed)": "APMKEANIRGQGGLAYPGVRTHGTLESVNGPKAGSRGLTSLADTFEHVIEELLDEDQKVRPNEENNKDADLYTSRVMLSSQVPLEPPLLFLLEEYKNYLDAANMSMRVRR", "test": "SPOT analysis of pro-dom-BDNF binding to cellulose-bound sortilin peptides", "settings": "HRP-S-protein detection where stated", "source_text": "(§1) Peptide libraries were generated for all members of the Vps10p-domain receptor gene family or specific peptide variations in terms of substitution or length of identified Sortilin binding peptides. A total of 2181 peptides was used for representation of the Sortilin gene family, corresponding to 273 peptides for Sortilin (accession code: CAA66904), 734 peptides for SorLA (accession code: NP_003096), 389 peptides for SorCS1 (accession code: NP_001013049), 382 peptides for sorCS2 (accession code: Q96PQ0), and 403 peptides for SorCS3 (accession code: CAI64579), with a 13 amino acid overlap between 16-mers.\n(§2) A cellulose support is prepared as a N-modified cellulose-amino-hydroxylpropyl ether membrane, and all rounds of synthesis starts with SPOT definition by 9-fluorenyl-methoxycarbonyl-β-alanine-pentafluoophenyl ester that creates an alanine linker between peptide and membrane. Then followed an automated linear synthesis of stepwise addition of the different amino acids protected at their amino terminal by 9-fluorenyl-methoxycarbonyl and appropriate side chain protection for the growing peptide chain. The pattern of deprotection, activation, and coupling continued until 16-mer peptides were produced, resulting in an equally distributed array of covalently anchored peptides to the cellulose support at their C-terminal and an N-terminal free end.\n(§3) The membrane-bound libraries were incubated with a combined S-peptide and poly-histidine-tagged pro-domains (10 ug/mL) in blocking buffer over night at 4 C, followed by a second incubation with 1 ug/mL of HRP-conjugated S-protein from Novagen (cat. no. 69047-3) also in blocking buffer but for 3 h at room temperature. Subsequently, the membrane was washed three times for 10 min with TBS before quantitative characterization of bound ligand was carried out using the UptiLight chemoluminescence substrate from Uptima (cat. no. UP99619A) and the Lumilmager instrument from Roche Diagnostics, providing the SPOT signal intensities in Boehringer Light Units (BLUs). […]"}, "pro-dom-NGF": {"molecular_target": "T3, pro-dom-NGF (Homo sapiens, UniProt P01138, A35V)", "T3 construct": "pro-dom-NGF (residues Glu^1-Arg^102); made in house; host or cells: E. coli BL21/DE3", "T3 sequence (P01138 19-121 A35V)": "T1 sequence (P01138 19-121 A35V)", "test": "SPOT analysis of pro-dom-NGF binding to cellulose-bound sortilin peptides", "settings": "HRP-S-protein detection where stated", "source_text": "as §1, §2, §3"}, "[1]": {"molecular_target": "T4, proNGF binding to immobilized Sortilin (Homo sapiens, UniProt Q99523)", "T4 construct": "51 fmol/mm^2 purified Sortilin extracellular domain; made in house; host or cells: Sortilin: stably transfected CHO cells; proNGF: E. coli", "T4 sequence (Q99523 78-755 limits assumed)": "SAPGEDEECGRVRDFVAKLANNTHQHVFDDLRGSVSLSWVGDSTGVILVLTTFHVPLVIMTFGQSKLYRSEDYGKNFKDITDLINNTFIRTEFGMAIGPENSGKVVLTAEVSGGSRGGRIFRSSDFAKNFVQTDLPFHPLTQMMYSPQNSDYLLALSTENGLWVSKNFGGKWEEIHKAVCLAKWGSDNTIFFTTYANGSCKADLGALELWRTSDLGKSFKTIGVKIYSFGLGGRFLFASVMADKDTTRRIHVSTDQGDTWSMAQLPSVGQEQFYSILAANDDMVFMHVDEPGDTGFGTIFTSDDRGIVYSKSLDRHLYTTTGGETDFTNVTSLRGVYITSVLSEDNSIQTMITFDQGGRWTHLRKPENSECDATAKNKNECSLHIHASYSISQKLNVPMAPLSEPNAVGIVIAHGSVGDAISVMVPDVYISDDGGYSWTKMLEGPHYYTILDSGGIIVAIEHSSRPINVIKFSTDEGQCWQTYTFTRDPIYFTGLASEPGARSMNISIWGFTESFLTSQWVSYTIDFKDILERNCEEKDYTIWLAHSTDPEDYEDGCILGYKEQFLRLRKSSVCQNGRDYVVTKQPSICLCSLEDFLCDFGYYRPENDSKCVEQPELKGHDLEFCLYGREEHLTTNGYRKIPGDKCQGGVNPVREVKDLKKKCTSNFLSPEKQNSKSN", "test": "Inhibition of proNGF binding to immobilized Sortilin (Biacore)", "settings": "then coinjection, 51 fmol/mm^2 Sortilin (FIG. 6)"}, "[2]": {"settings": "GST-pro-dom-NGF at 10-50 nM, 1:1 binding model"}},
  "note": "“Also recorded” adds a separate entry of the source. Where no end group is shown, it is not given here.",
  "data": [
    {"molecule": "F165A: single residue mutant of his-tagged sortilin luminal domain; SEQ ID NO 52 (RGGRIARSSDFAKNF; not fully specified)", "values": [
      {"measurement": "Kd", "setting": "GST-pro-dom-NGF; [2]", "value": 3.86, "unit": "nM"},
      {"measurement": "ka", "setting": "GST-pro-dom-NGF; [2]", "value": "1.10 × 10^5"},
      {"measurement": "kd", "setting": "GST-pro-dom-NGF; [2]", "value": "4.22 × 10^−4"}
    ]},
    {"molecule": "F170A: single residue mutant of his-tagged sortilin luminal domain; SEQ ID NO 54 (RGGRIFRSSDAAKNF; not fully specified)", "values": [
      {"measurement": "Kd", "setting": "GST-pro-dom-NGF; [2]", "value": 5.59, "unit": "nM"},
      {"measurement": "ka", "setting": "GST-pro-dom-NGF; [2]", "value": "1.30 × 10^5"},
      {"measurement": "kd", "setting": "GST-pro-dom-NGF; [2]", "value": "5.91 × 10^−4"}
    ]},
    {"molecule": "F174A: single residue mutant of his-tagged sortilin luminal domain; SEQ ID NO 56 (RGGRIFRSSDFAKNA; not fully specified)", "values": [
      {"measurement": "Kd", "setting": "GST-pro-dom-NGF; [2]", "value": 4.27, "unit": "nM"},
      {"measurement": "ka", "setting": "GST-pro-dom-NGF; [2]", "value": "2.35 × 10^5"},
      {"measurement": "kd", "setting": "GST-pro-dom-NGF; [2]", "value": "1.03 × 10^−3"}
    ]},
    {"molecule": "FAKNFVQTD (listed as Homo Sapiens)", "values": [
      {"measurement": "pro-dom-BDNF binding in SPOT analysis", "setting": "pro-dom-BDNF", "value": "efficient binding"},
      {"measurement": "pro-dom-NGF binding in SPOT analysis", "setting": "pro-dom-NGF", "value": "efficient binding"}
    ]},
    {"molecule": "K172A: single residue mutant of his-tagged sortilin luminal domain; SEQ ID NO 55 (RGGRIFRSSDFAANF; not fully specified)", "values": [
      {"measurement": "Kd", "setting": "GST-pro-dom-NGF; [2]", "value": 3.91, "unit": "nM"},
      {"measurement": "ka", "setting": "GST-pro-dom-NGF; [2]", "value": "1.01 × 10^5"},
      {"measurement": "kd", "setting": "GST-pro-dom-NGF; [2]", "value": "3.46 × 10^−4"}
    ]},
    {"molecule": "R160A: single residue mutant of his-tagged sortilin luminal domain, control; SEQ ID NO 50 (AGGRIFRSSDFAKNF; not fully specified)", "values": [
      {"measurement": "Kd", "setting": "GST-pro-dom-NGF; [2]", "value": 1.89, "unit": "nM"},
      {"measurement": "ka", "setting": "GST-pro-dom-NGF; [2]", "value": "1.47 × 10^5"},
      {"measurement": "kd", "setting": "GST-pro-dom-NGF; [2]", "value": "2.27 × 10^−4"}
    ]},
    {"molecule": "R163A: single residue mutant of his-tagged sortilin luminal domain; SEQ ID NO 51 (RGGAIFRSSDFAKNF; not fully specified)", "values": [
      {"measurement": "Kd", "setting": "GST-pro-dom-NGF; [2]", "value": 2.7, "unit": "nM"},
      {"measurement": "ka", "setting": "GST-pro-dom-NGF; [2]", "value": "1.85 × 10^5"},
      {"measurement": "kd", "setting": "GST-pro-dom-NGF; [2]", "value": "4.21 × 10^−4"}
    ]},
    {"molecule": "R166A: single residue mutant of his-tagged sortilin luminal domain; SEQ ID NO 53 (RGGRIFASSDFAKNF; not fully specified)", "values": [
      {"measurement": "Kd", "setting": "GST-pro-dom-NGF; [2]", "value": 4.38, "unit": "nM"},
      {"measurement": "ka", "setting": "GST-pro-dom-NGF; [2]", "value": "6.48 × 10^4"},
      {"measurement": "kd", "setting": "GST-pro-dom-NGF; [2]", "value": "2.85 × 10^−4"}
    ]},
    {"molecule": "RIFR: 4-mer sortilin peptide, SEQ ID NO:25 residues 7-10 (listed as Homo Sapiens)", "values": [
      {"measurement": "pro-dom-BDNF binding in SPOT analysis", "setting": "pro-dom-BDNF", "value": "binds very strongly"},
      {"measurement": "pro-dom-NGF binding in SPOT analysis", "setting": "pro-dom-NGF", "value": "binds very strongly"}
    ]},
    {"molecule": "RIFRSSDF (listed as Homo Sapiens)", "values": [
      {"measurement": "pro-dom-BDNF binding in SPOT analysis", "setting": "pro-dom-BDNF", "value": "efficient binding"},
      {"measurement": "pro-dom-NGF binding in SPOT analysis", "setting": "pro-dom-NGF", "value": "efficient binding"}
    ]},
    {"molecule": "Sortilin propeptide: propeptide of the Sortilin receptor (QDRLDAPPPPAAPLPRWSGPIGVSWGLRAAAAGGAFPRGGRWRR)", "values": [
      {"measurement": "inhibition of binding of 200 nM proNGF to immobilized Sortilin", "setting": "[1]; 5 μM inhibitor prebound", "value": "~65", "unit": "%"}
    ]},
    {"molecule": "quatro: sortilin variant with quadruple substitutions R163A, F165A, R166A, F170A; SEQ ID NO 57 (RGGAIAASSDAAKNF; not fully specified)", "values": [
      {"measurement": "binding of GST-pro-dom-NGF compared with sortilin wt", "setting": "GST-pro-dom-NGF; 50 nM GST-pro-dom-NGF, FIG. 22", "value": "severely affected; also recorded: strongly reduced affinity"},
      {"measurement": "KD", "setting": "GST-pro-dom-NGF; [2]", "value": "no binding"}
    ]},
    {"molecule": "B1", "values": [
      {"measurement": "inhibition of binding of 200 nM proNGF to immobilized Sortilin", "setting": "[1]; 10 μM inhibitor prebound", "value": "~65", "unit": "%"}
    ]}
  ]
}
